Laboratory results: EP4745153A1, “GLP-1, GIP AND GCG RECEPTOR […] USE THEREOF” (Jiangsu Hengrui Pharmaceuticals Co., Ltd., priority 2023, dated 2025)
Read-outs that look alike come from different tables or passages of the source. Starred links: 1 amine or outer side, 2 acyl side, 3 side chain; linkers in the order of their positions; H or OH if unused. Non-standard residues stand in square brackets, D forms with d. Groups on a side chain read outwards from the residue. No end group written: not given here. *: point of attachment. C20 diacid = O=C(O)CCCCCCCCCCCCCCCCCCC(=O)*; C17 diacid = O=C(O)CCCCCCCCCCCCCCCC(=O)*; γGlu = O=C(O)[C@H](CCC(=O)[*:2])N[*:1]; αMeK = C[C@](N)(CCCCN)C(=O)O; Ac4c = NC1(C(=O)O)CCC1; AEEA = NCCOCCOCC(=O)O; Aib = CC(C)(N)C(=O)O

T1: human glucose-dependent insulinotropic polypeptide receptor (human, UniProt P48546 22-466)
T1 sequence (looked up): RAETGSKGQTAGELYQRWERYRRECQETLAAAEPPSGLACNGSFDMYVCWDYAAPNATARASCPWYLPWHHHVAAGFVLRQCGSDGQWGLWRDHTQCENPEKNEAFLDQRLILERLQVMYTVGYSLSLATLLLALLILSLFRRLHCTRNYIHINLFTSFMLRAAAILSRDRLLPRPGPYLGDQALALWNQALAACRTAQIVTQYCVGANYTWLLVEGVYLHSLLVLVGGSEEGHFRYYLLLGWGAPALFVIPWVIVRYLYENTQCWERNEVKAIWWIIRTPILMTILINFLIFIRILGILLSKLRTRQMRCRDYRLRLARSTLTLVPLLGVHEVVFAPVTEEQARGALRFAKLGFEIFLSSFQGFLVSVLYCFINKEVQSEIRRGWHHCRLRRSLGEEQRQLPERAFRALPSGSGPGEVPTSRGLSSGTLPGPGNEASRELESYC

B1: Compound No. 0118 (peptide)
peptide: H[Aib]HGTFTSDYS[αMeK]LLEK([AEEA-AEEA-γGlu-C17 diacid])IAAQEFVEWLLAGGPSSGAPPPS-NH2
modifications: N-terminus assumed
SMILES: CC[C@H](C)[C@H](NC(=O)[C@H](CCCCNC(=O)COCCOCCNC(=O)COCCOCCNC(=O)CC[C@H](NC(=O)CCCCCCCCCCCCCCCC(=O)O)C(=O)O)NC(=O)[C@H](CCC(=O)O)NC(=O)[C@H](CC(C)C)NC(=O)[C@H](CC(C)C)NC(=O)[C@](C)(CCCCN)NC(=O)[C@H](CO)NC(=O)[C@H](Cc1ccc(O)cc1)NC(=O)[C@H](CC(=O)O)NC(=O)[C@H](CO)NC(=O)[C@@H](NC(=O)[C@H](Cc1ccccc1)NC(=O)[C@@H](NC(=O)CNC(=O)[C@H](Cc1c[nH]cn1)NC(=O)C(C)(C)NC(=O)[C@@H](N)Cc1c[nH]cn1)[C@@H](C)O)[C@@H](C)O)C(=O)N[C@@H](C)C(=O)N[C@@H](C)C(=O)N[C@@H](CCC(N)=O)C(=O)N[C@@H](CCC(=O)O)C(=O)N[C@@H](Cc1ccccc1)C(=O)N[C@H](C(=O)N[C@@H](CCC(=O)O)C(=O)N[C@@H](Cc1c[nH]c2ccccc12)C(=O)N[C@@H](CC(C)C)C(=O)N[C@@H](CC(C)C)C(=O)N[C@@H](C)C(=O)NCC(=O)NCC(=O)N1CCC[C@H]1C(=O)N[C@@H](CO)C(=O)N[C@@H](CO)C(=O)NCC(=O)N[C@@H](C)C(=O)N1CCC[C@H]1C(=O)N1CCC[C@H]1C(=O)N1CCC[C@H]1C(=O)N[C@@H](CO)C(N)=O)C(C)C
B2: Compound No. 0117 (peptide)
peptide: H[Aib]HGTFTSDYS[αMeK]LLEK([AEEA-AEEA-γGlu-C20 diacid])QAAQEFVEWLLAGGPSSGAPPPS-NH2
modifications: N-terminus assumed
SMILES: CC(C)C[C@H](NC(=O)[C@H](CC(C)C)NC(=O)[C@H](Cc1c[nH]c2ccccc12)NC(=O)[C@H](CCC(=O)O)NC(=O)[C@@H](NC(=O)[C@H](Cc1ccccc1)NC(=O)[C@H](CCC(=O)O)NC(=O)[C@H](CCC(N)=O)NC(=O)[C@H](C)NC(=O)[C@H](C)NC(=O)[C@H](CCC(N)=O)NC(=O)[C@H](CCCCNC(=O)COCCOCCNC(=O)COCCOCCNC(=O)CC[C@H](NC(=O)CCCCCCCCCCCCCCCCCCC(=O)O)C(=O)O)NC(=O)[C@H](CCC(=O)O)NC(=O)[C@H](CC(C)C)NC(=O)[C@H](CC(C)C)NC(=O)[C@](C)(CCCCN)NC(=O)[C@H](CO)NC(=O)[C@H](Cc1ccc(O)cc1)NC(=O)[C@H](CC(=O)O)NC(=O)[C@H](CO)NC(=O)[C@@H](NC(=O)[C@H](Cc1ccccc1)NC(=O)[C@@H](NC(=O)CNC(=O)[C@H](Cc1c[nH]cn1)NC(=O)C(C)(C)NC(=O)[C@@H](N)Cc1c[nH]cn1)[C@@H](C)O)[C@@H](C)O)C(C)C)C(=O)N[C@@H](C)C(=O)NCC(=O)NCC(=O)N1CCC[C@H]1C(=O)N[C@@H](CO)C(=O)N[C@@H](CO)C(=O)NCC(=O)N[C@@H](C)C(=O)N1CCC[C@H]1C(=O)N1CCC[C@H]1C(=O)N1CCC[C@H]1C(=O)N[C@@H](CO)C(N)=O
B3: Compound No. 0114 (peptide)
peptide: Y[Aib]QGTFTSDYS[αMeK]LLEK([AEEA-AEEA-γGlu-C20 diacid])KAAQEFVEWLLAGGPSSGAPPPS-NH2
modifications: N-terminus assumed
SMILES: CC(C)C[C@H](NC(=O)[C@H](CC(C)C)NC(=O)[C@H](Cc1c[nH]c2ccccc12)NC(=O)[C@H](CCC(=O)O)NC(=O)[C@@H](NC(=O)[C@H](Cc1ccccc1)NC(=O)[C@H](CCC(=O)O)NC(=O)[C@H](CCC(N)=O)NC(=O)[C@H](C)NC(=O)[C@H](C)NC(=O)[C@H](CCCCN)NC(=O)[C@H](CCCCNC(=O)COCCOCCNC(=O)COCCOCCNC(=O)CC[C@H](NC(=O)CCCCCCCCCCCCCCCCCCC(=O)O)C(=O)O)NC(=O)[C@H](CCC(=O)O)NC(=O)[C@H](CC(C)C)NC(=O)[C@H](CC(C)C)NC(=O)[C@](C)(CCCCN)NC(=O)[C@H](CO)NC(=O)[C@H](Cc1ccc(O)cc1)NC(=O)[C@H](CC(=O)O)NC(=O)[C@H](CO)NC(=O)[C@@H](NC(=O)[C@H](Cc1ccccc1)NC(=O)[C@@H](NC(=O)CNC(=O)[C@H](CCC(N)=O)NC(=O)C(C)(C)NC(=O)[C@@H](N)Cc1ccc(O)cc1)[C@@H](C)O)[C@@H](C)O)C(C)C)C(=O)N[C@@H](C)C(=O)NCC(=O)NCC(=O)N1CCC[C@H]1C(=O)N[C@@H](CO)C(=O)N[C@@H](CO)C(=O)NCC(=O)N[C@@H](C)C(=O)N1CCC[C@H]1C(=O)N1CCC[C@H]1C(=O)N1CCC[C@H]1C(=O)N[C@@H](CO)C(N)=O
B4: Compound No. 0145 (peptide)
peptide: H[Aib]HGTFTSDLSILLEK([AEEA-AEEA-γGlu-C20 diacid])QAA[Ac4c]EFVEWLLA[dE]GPSSGAPPPS-NH2
modifications: N-terminus assumed
SMILES: CC[C@H](C)[C@H](NC(=O)[C@H](CO)NC(=O)[C@H](CC(C)C)NC(=O)[C@H](CC(=O)O)NC(=O)[C@H](CO)NC(=O)[C@@H](NC(=O)[C@H](Cc1ccccc1)NC(=O)[C@@H](NC(=O)CNC(=O)[C@H](Cc1c[nH]cn1)NC(=O)C(C)(C)NC(=O)[C@@H](N)Cc1c[nH]cn1)[C@@H](C)O)[C@@H](C)O)C(=O)N[C@@H](CC(C)C)C(=O)N[C@@H](CC(C)C)C(=O)N[C@@H](CCC(=O)O)C(=O)N[C@@H](CCCCNC(=O)COCCOCCNC(=O)COCCOCCNC(=O)CC[C@H](NC(=O)CCCCCCCCCCCCCCCCCCC(=O)O)C(=O)O)C(=O)N[C@@H](CCC(N)=O)C(=O)N[C@@H](C)C(=O)N[C@@H](C)C(=O)NC1(C(=O)N[C@@H](CCC(=O)O)C(=O)N[C@@H](Cc2ccccc2)C(=O)N[C@H](C(=O)N[C@@H](CCC(=O)O)C(=O)N[C@@H](Cc2c[nH]c3ccccc23)C(=O)N[C@@H](CC(C)C)C(=O)N[C@@H](CC(C)C)C(=O)N[C@@H](C)C(=O)N[C@H](CCC(=O)O)C(=O)NCC(=O)N2CCC[C@H]2C(=O)N[C@@H](CO)C(=O)N[C@@H](CO)C(=O)NCC(=O)N[C@@H](C)C(=O)N2CCC[C@H]2C(=O)N2CCC[C@H]2C(=O)N2CCC[C@H]2C(=O)N[C@@H](CO)C(N)=O)C(C)C)CCC1

Key:
Assay in all cases: cell-based or functional assay
[1] = target: T1, human glucose-dependent insulinotropic …
[2] = target: human glucagon-like peptide-1 receptor (human, UniProt P43220 24-463)
[3] = target: T1, human glucose-dependent insulinotropic …; remark: listed apart in the source
human glucagon receptor = human glucagon receptor (human, UniProt P47871 26-477)
human glucagon receptor, sequence (P47871 26-477): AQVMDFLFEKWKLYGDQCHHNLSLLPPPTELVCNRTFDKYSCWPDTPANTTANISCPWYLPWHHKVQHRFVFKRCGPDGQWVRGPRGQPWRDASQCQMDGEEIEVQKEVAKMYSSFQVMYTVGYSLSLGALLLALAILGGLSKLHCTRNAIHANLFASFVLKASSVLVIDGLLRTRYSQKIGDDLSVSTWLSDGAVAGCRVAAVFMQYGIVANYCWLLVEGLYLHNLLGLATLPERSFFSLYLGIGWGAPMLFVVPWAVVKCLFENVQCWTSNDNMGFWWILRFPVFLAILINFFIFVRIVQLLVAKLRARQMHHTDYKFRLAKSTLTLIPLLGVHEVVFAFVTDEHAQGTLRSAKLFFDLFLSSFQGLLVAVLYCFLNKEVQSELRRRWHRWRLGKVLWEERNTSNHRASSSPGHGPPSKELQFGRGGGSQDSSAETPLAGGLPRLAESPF

Row | Binder | Activity against human GIPR (EC50 nM) [1] [nM] | Activity against human GLP-1R (EC50 nM) [2] [nM] | Activity against human GIPR (EC50 nM) [3] [nM] | Activity against human GCGR (EC50 nM) (human glucagon receptor) [nM]
1 | B1 | 0.004 |  |  | 
2 | B2 | 0.003 |  |  | 
3 | B3 | 0.01 |  |  | 
4 | B4 |  | 0.057 | 0.003 | 0.143
